Measured values as given in the nanobody polyreactivity screen of Harvey et al. (2022).

assay: yeast display, Sf9 membrane polyspecificity reagent, FACS + sequencing; frameworks hold sequencing errors
How it was run: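 Polyreactivity labels are assigned by the sorting gate from which each nanobody was recovered. The gates were low and high (top ~1%), set on anti-HA fluorescence for expression and streptavidin fluorescence for reagent binding. Before sorting, galactose-induced (36–48 hours) yeast display cells were stained for 1 hour at 4 °C with 10% biotinylated, detergent-solubilized Sf9 membrane reagent.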

Sequence	polyreactivity (PSR sort gate)
QEQLVESGGGLVQAGGSLRLSCGASRSIVHYYAMGWYRQAPGKEREFVAAIAWGGDSTYYADSVKGRFTNSRDNANNTVYFQMYSLKPEDTAVYYCAADGPGGIGNGAGYDYWGQGTEVTVSS	low polyreactivity
QFHLVESGGGLFQAGGSLRISCAASGRTLLVNAMGWYRQAPGKERELVAVITRGGSTNYADSVKGRFTISRDNAKNTVYLQMNSLKPEDTAVYYCAKQFSPYRSYGPVVRYDYWGQGTQVTVSS	low polyreactivity
QFQHVESGGCLDQAGRSLRLSSAASGYIFVNAMGWYRQPPGKEMELVAAISSGGSTHYADSVKGRFTISRDNAKYTVYLQMNSLKPEDTAVYYCAAGSFYYGIVQGWYDYWGQGTQVTVSS	high polyreactivity
QFQIVDSVGGLVQAGGSLRLSCAASGRTFSYYSLGWYREATGKERELVASIRKSGASTYYADSVKGRFTISRDNAKNTVYLQMNSLKPEDTAVYYCNTAGWSFYSGRYDYWGQGTQVTVSS	high polyreactivity
QFQLDESGGGLVQAGGSLRLSCAASGLTFSIYAMGWYRKARGKERELVAAITGRGGRTYYADSVKGRFTISRENAKNTVYLQMKSLKPEDTAFYYCADRYRGTDFDYWGQGTQVTVSS	high polyreactivity
QFQLEESGGGLVQAGGSLRLSCAASGFIFTDNGMGRYRQATGKERELVAAINSDGSTYYADSVKGRFTISRDNAKNTVYLQMTSLIPEYTAVYYCAAGSFDRYFWYDYWGQGTQVTVSS	low polyreactivity
QFQLEESGVGLVQAGGSLRLSCAASGFTFNVYAMGWYRQAPGKERELVAAIRWGAGSTYYADSVKGRFTISRDNAKNTVYLQMNSLKPEDTAVYYCAKDSGVWRYDHWGQGTQVTVSS	low polyreactivity
QFQLLESGGGLVQAGGSLRLSCAASGSIFTRNAIGWYRQAPGSERELVAAITSAGSTSYADSVKGRFTISRDNAKNTVYLQMNSQKPEDTAVYYCNTVPGRYRTFDYWGQGTQVTVSS	high polyreactivity
QFQLLESGGGLVQAGGSLRLSCADSGSIYLYYARGWYRQAPGKESELVAAITYSGVSTYDAVSVKGRFTISRDTSNNTVYLQMNSLKPEDNAFYDCARRWNAFGSKGVYWGQGTQVTVSS	high polyreactivity
QFQLLESGGGLVQAGSSLRLSCAASGSTFKYYTMGWYRQAPGKERELVATIRGAGTTYADSVKGRFTISRDNAKHTVYLQMNSLKPEDTAVYYCARLPRGDMDYWGQGTQVTVSS	low polyreactivity
QFQLQESCCGLVQAGGSLRLSCAASGTISYAPQMGWYRQAPGKERELVAGITIGGTTYYADSVKGRFTISRDNAKNTVYLQMNSLSPGDTAVYYCAAHSEQYTPFYYWGQGTQVTVSS	low polyreactivity
QFQLVDSGGALVQAGGSLRLSCAASGFTFYPYAMGWYRQAPGKERELVAAISKRGGSTYYADSVKGRFTISRDHAKNTVYLQMNSLNPEDTAVYYCIAFFNGELYYWGQGTQVTVSS	high polyreactivity
QFQLVESCAGLVQAGGSLRLSCADSGRIFRQYAMGWYIPAPGKERELVASITRNGGSTYYADSVKGRFTISRDNAKNTVYLQMNSQKPEDTAVYYCAKDVKGSYAYDSWGQGTQVTVSS	high polyreactivity
QFQLVESGGGFVQAGGSLRLSCAASGRIFGPYAMGWYRQAPGKERELVAAISFSGSGTYYADSVKGRFTISRDNAKNTVYLQMNSLKPEDTAVYYCAATSRKIVAYDHDYWGQGTQVTVSS	low polyreactivity
QFQLVESGGGFVQAGGSLRLSCAASGYTFQRYAMGWYRQAPGKERELVATISKRGGSTYYADSVKGRFTISRDNAKNTDYLQMNSLKPEDTAVYYCNKLRGLHNGYDYWGQGTQVTVSS	high polyreactivity
QFQLVESGGGLDQAGGSLRLSCAASGFTFQYYAMGWYRQAPGKERELVAAITRGDSTNYADSVKGRFTISRDNAKNTVYLQMNSLKPEDTAVYYCAAGSAPSYWGGWYYERDYWGQGTQVTVSS	low polyreactivity
QFQLVESGGGLDQAGGSLRLSCAASGITFGNYAMGWYRQAPGKERELVAAITGSGGRTNYADSVKGRFTISRDNAKNTVYLQMNSLKPEDTAVYYCNRRQYGRKKQYDYWGQGTQVTVSS	high polyreactivity
QFQLVESGGGLDQAGGSLRLSCAASGLIFSTYSMGLYIQARGKETELVAAISGTGSTYYADSVKGRFTISRDNAKNTVYLQMNSLKPEDTAVYYCNADTYYAGRRYDYWGQGTQVTVSS	low polyreactivity
QFQLVESGGGLDQAGGSLRLSCAASGLIFYNYDMGWYRQAPGKERELVAAITLDGGITYYADSVKGRFTISRDNAKNTVYLQLNSLKPEDTAVYYCNRQYRLYGGYPSNLYEYWGQGTQVTVSS	high polyreactivity
QFQLVESGGGLDQAVGSLRLSCAASGSIFYPNVMGGYREAPGKEREMVAAIRTSGGSTYYADSVQGRFTISRETAKNTVYLQMNSLKPEDTAVYYCAAKRTGNGYPRSGYYRYEYWGHGTQVTVSS	high polyreactivity
QFQLVESGGGLVHAGGSLRLSCAASGITYWAYSMGWYRQARGKERELVAAIRFRGRTYYADSVKGRFTISRDNAKNSVYLQMNSLKAEDTAVYYFDADLSYWDDFEYWGQGNQVTVSS	low polyreactivity
QFQLVESGGGLVQAAGSLRLSCAASGSTFVSNAMGWYRQAPGKDRELVAAITRSGGSTRDADSVKGRLTISRDNAKNTGYLQMNSLKPEDTAVYYCAAPHKYYGLRYYYWGQGTQVTVSS	high polyreactivity

Sequence	polyreactivity (PSR sort gate)
QFQLVESGGGLVQAGCSLRLSCAASGGTFGLYAMGWYRQAPGKERELVAANTWSDSSTYYADSVKGRFTISRDNAKNTVYLQMNSLKPEDNAVYYCAADYGDADTWWPSAEYHSGRDYWGQGTQVTVSS	low polyreactivity
QFQLVESGGGLVQAGCSLRLSCAASGLTVGSNTMGWDRQAPGKERELVAAITSNGGSTYYADSVKGRFTISRDNAKNTVYLQMNSLIPEDTAVYYCAADDRGLISRRGYFYLSYDYWGQGTQVTVSA	low polyreactivity
QFQLVESGGGLVQAGGILRLSCAASGFTFRVNAMGWYRQAPGKERELVASITVSDGRTYYADSVKGRFTISRDNAKNTVYLQMNSLKPEDCAVYYCAADYKGAFTTDWSSEYEYWGQGTQVTVSS	low polyreactivity
QFQLVESGGGLVQAGGSHRLSCAASGRIFSYYAMGWYRQAPGNERELVATITSGGNTNYADSVKGRFTISLDNAKNTVYLQMNSLKPEDTAVYYCKAAERQWYDAYDYWGQGTQVTVSS	low polyreactivity
QFQLVESGGGLVQAGGSLLLSCAASGRTFDWYAMGWYRLAPGKERELVAGISGSSGRTYYADSVKGRFTISRDNAKNTVYLQMNSLKPEDTAVYYCAADFSFWKLVYYQSGRYDYWGQGTQVTVSS	high polyreactivity
QFQLVESGGGLVQAGGSLRLICAASGFIFRTYAMGWYRQAPGKAREFVAAITFSAGSTYYADSVKGRFTISRDNAKNTVYLQMNSLLPEDSAVYDCNVLKSWYGYSVTGRYVYWGQGTQVTVSS	low polyreactivity
QFQLVESGGGLVQAGGSLRLRCAPSGNTLIVKAMGWYRQAPGKEMELVAAITRDGRTNYADSVKGRFTISRDNAKNTVYLQMNSLKPEDTAVYYCAAEGVPDALDRDYWGQGTQVTVSS	low polyreactivity
QFQLVESGGGLVQAGGSLRLSCAASGCTLQRNNRGWYRQAPGKDSEFVARISRRACSTYYADSVKGRITISRDNAKNTVYLQMNSLKPEDTAVYYCSTEDRGLTTRYPYDYWGQGTQVTVSS	high polyreactivity
QFQLVESGGGLVQAGGSLRLSCAASGFIFGLYAMGWYRQAPGKERELVAAISRSGGSTYYADSVKGRFTISRDNAKNTVYLQMNSLKPEDTAVYYCNARYSWPRANWYDYWGQGTQVTVSS	high polyreactivity
QFQLVESGGGLVQAGGSLRLSCAASGFIFKRYTMGWYRQAPGKERELVAAISFSGGSTYYADSVKGRFTISRDNAKNTVYLQMNSLKPEDTAVYYCAKVYRVVPATQKEYGYWGQGTQVTVSS	high polyreactivity
QFQLVESGGGLVQAGGSLRLSCAASGFIFKSNAMGWYRQAPGKERELVAAITKRGGSTYYADSVKGRFTISGDYAKNTVYLQMNSLKPEDTAVYYCAVRKPYSRYTVNYDSWGQGTQVTVSS	high polyreactivity
QFQLVESGGGLVQAGGSLRLSCAASGFIFPLYTMGWYRQAPGKETELVAAIDGGGTTYADSVKGRFTISRDNAKNTVYLQMNSLKPEDTAVYYCAADWYYQYSIYRYGYWGQGTQVTVSS	low polyreactivity
QFQLVESGGGLVQAGGSLRLSCAASGFIFQRYAMGWYRQAPGKERELVAAINFSGGSTYYADSVKGRFTISRDNAKNTVYLQMNSLKPEDTAVYYCNTGNITQTKSIFDYWGQGSQVTVSS	high polyreactivity
QFQLVESGGGLVQAGGSLRLSCAASGFIFTNYAMGWYRQAPGKEWELVAAINRSGGRTYYADSVKGRFTISRDNAKNTVYLQMNSLKPEDNAVYYCAAKGVSYRPAYDYWGQGTQVTVSS	high polyreactivity
QFQLVESGGGLVQAGGSLRLSCAASGFNFGWYDMGWYRQAPGKERELVASISWSGSSTYYADSVKGRFTISRDNAKNTVYLQMNSLKPEDTAVYYCATPYWRRYDYWGQGTQVTVSS	high polyreactivity
QFQLVESGGGLVQAGGSLRLSCAASGFTFSGYAMGWYRQAPGKERELVAAINWRGDSTYYADSVKGRFTISRDNAKNTVYLHMNSLKPEDTAVYYCYVVLGPQRYSTDYGYWGQGTQVTVSS	high polyreactivity
QFQLVESGGGLVQAGGSLRLSCAASGFTFTVYAMGWYRQAPGKERELVAAITRGTSTYADSVKGRFTISRDNAKNTVYLQMNSLKPEDTAVYYCAARSSPWYTRYRSSELFDYWGQGTQVTVSS	high polyreactivity
QFQLVESGGGLVQAGGSLRLSCAASGFTIGPYTMAWYRQAPGKERELVAAISYSGASTYYADSVKGRFTISRDNAKNTVYLQMNSLKPEDTAVYYCNTVYRFTRARYPYDYWGQGTQVTVSS	high polyreactivity
QFQLVESGGGLVQAGGSLRLSCAASGFTSYRNALGWYRQAPGKERELVAAISRGDSTYYADSVKGRFTISRDNAKNTVYLQMNSLKAEDTAVYYCATPPTVYGWLAGYDYWGQGTQVTVSS	low polyreactivity
QFQLVESGGGLVQAGGSLRLSCAASGIIFYENNMGWYRQAPGKERELVAAINSGGSTYYADSVKGRFTISRDNAKNTVYLQMNSLKPEDTAVYYCDADDYSGLYYSSTYRYEYWGQGTQVTVSS	low polyreactivity
QFQLVESGGGLVQAGGSLRLSCAASGINFSSYVMGWYRQAPGKERELVAAISKSGARTSYADSVKGRFSISRDNAKNTVYLQMNSLKPEDTAVYYCNAYTESWYPIYFFGWSYTAVDYWGQGTQVTVSS	low polyreactivity
